From the RNAGym collection of RNA variant scans (doi:10.7554/elife.90254)

B1: LINE1-full (parent)
chain: UACGUAGGUGGUUUUCCCCUGAUAGUGCUAAGGGGGCCUGGAAGUUUGGACUGGGCAGAGCUCAACACAGCGUGGCAAAGUGGCUGUGGCUAGACUGCCUCUCUGGAUUCCUCGUCACUCAGCAGGGCAUCUCUGAGAGAAAUGCC

Variants of: B1
Test: self-cleavage, relative activity (ratio to wild type); higher = more cleavage; in vitro, sequencing; the parent is a self-cleaving ribozyme

Variant	self-cleavage
U14A A121C	1.07
G82A U102C	1.57
G36A A50U	1.16
U20C A77G	1.7
U39C U143C	1.33
U87C U100C	0.26
G88A G122A	0.07
U45A A121G	1.88
A6G A117U	2.04
U73G A136U	0.81
U9C A30G	1.21
U85C G139A	0.2
U47A U62A	0.05
U9C U15C	1.28
G27C U52A	0.91
U20A	1.21
A69G U143A	0.31
U13A U39C	0.61
A92U U109A	0.34
A30U A77U	0.98
U15C G80A	1.82

Variant	self-cleavage
U14C A24U	1.07
A2G U108C	0.94
A50C A142G	1.78
A78G C84A	0.09
A69U U119C	0.06
U46G A107G	1.15
A59G A117U	0.08
U47C U104G	1.2
U5A U132A	1.38
C3A U134C	0.92
U109G A141U	1.08
G25A U47C	0.54
A30U U73C	1.8
U13C G139A	0.92
U9C U108C	1.54
U23C A124G	1.52
C37G U47C	0.71
U14C A59G	0.14
C116A A141U	1.47
A107U A138U	2.59
A69U A107U	0.04

Variant	self-cleavage
G36A C63U	0.36
G89A A92U	0.07
U5C G32A	1.06
G40C A140G	1.23
C110U A121U	1.43
C61U A107G	0.03
C38A U52C	0.99
U46A U104C	1.96
G11A U132C	1.03
U73A A92G	0.13
U26C A121U	1.43
U52A G54U	1.84
A117U U119A	0.99
U1A U12G	0.97
U39C C123U	0.9
U91C A121G	1.29
G11U A42G	1.58
U15C U130C	1.19
G97A U115C	0.3
U13G U47A	0.86
A50U G80C	0.82

Variant	self-cleavage
A121C A141G	1.99
U12C U20G	0.78
G53U U87A	0.05
U96G U115C	0
A30C A65G	0.08
A42G A69C	0.06
U13C U119A	1.15
U15C G126A	1.41
U20C A43G	1.35
C16U A136U	1.29
G125U A142G	1.33
A2G A57U	0.38
U23C A79U	2.06
A57G A92G	0.14
U9G U85C	0.38
C66U A78G	0.04
C118U U130C	0.97
A50U U100A	0.31
C145A	0.95
G34C C56G	0.03
C37A U108C	1.51
